According to paper PMC11574045, “A cofactor-induced repressive type of transcription factor condensation can be induced by synthetic peptides to suppress tumorigenesis” (The EMBO Journal, 2024):

Test system: HEK293FT cells transfected with TF library
Experiment: Screening of TF condensates based on fluorescent puncta
Type: cell-based
Settings: Figure 1B numerical data; TF library screen, one value per transcriptional factor
Method in brief: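 HEK293FT cells were reverse-transfected with Flag- or GAL4-tagged TF plasmids (1.6 μg/ml, PEI). After 60 h, cells were cultured 12 h with or without glucose, then fixed and immunostained with anti-Flag or anti-GAL4 and Alexa 488 secondaries. Fluorescent puncta were imaged over fifty random fields per well by high-content imaging.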

B1: C16orf5 (protein, UniProt Q9H305 1-208, looked up)
Cell death-inducing …: MSSEPPPPYPGGPTAPLLEEKSGAPPTPGRSSPAVMQPPPGMPLPPADIGPPPYEPPGHPMPQPGFIPPHMSADGTYMPPGFYPPPGPHPPMGYYPPGPYTPGPYPGPGGHTATVLVPSGAATTVTVLQGEIFEGAPVQTVCPHCQQAITTKISYEIGLMNFVLGFFCCFMGCDLGCCLIPCLINDFKDVTHTCPSCKAYIYTYKRLC
Z score of condensed fraction: 3.145

B2: YAF2 (protein, UniProt Q8IY57 1-180, looked up)
YY1-associated factor 2: MGDKKSPTRPKRQPKPSSDEGYWDCSVCTFRNSAEAFKCMMCDVRKGTSTRKPRPVSQLVAQQVTQQFVPPTQSKKEKKDKVEKEKSEKETTSKKNSHKKTRPRLKNVDRSSAQHLEVTVGDLTVIITDFKEKTKSPPASSAASADQHSQSGSSSDNTERGMSRSSSPRGEASSLNGESH
Z score of condensed fraction: 1.84

B3: UBTF (protein, UniProt P17480 1-764, looked up)
Nucleolar transcription …: MNGEADCPTDLEMAAPKGQDRWSQEDMLTLLECMKNNLPSNDSSKFKTTESHMDWEKVAFKDFSGDMCKLKWVEISNEVRKFRTLTELILDAQEHVKNPYKGKKLKKHPDFPKKPLTPYFRFFMEKRAKYAKLHPEMSNLDLTKILSKKYKELPEKKKMKYIQDFQREKQEFERNLARFREDHPDLIQNAKKSDIPEKPKTPQQLWYTHEKKVYLKVRPDATTKEVKDSLGKQWSQLSDKKRLKWIHKALEQRKEYEEIMRDYIQKHPELNISEEGITKSTLTKAERQLKDKFDGRPTKPPPNSYSLYCAELMANMKDVPSTERMVLCSQQWKLLSQKEKDAYHKKCDQKKKDYEVELLRFLESLPEEEQQRVLGEEKMLNINKKQATSPASKKPAQEGGKGGSEKPKRPVSAMFIFSEEKRRQLQEERPELSESELTRLLARMWNDLSEKKKAKYKAREAALKAQSERKPGGEREERGKLPESPKRAEEIWQQSVIGDYLARFKNDRVKALKAMEMTWNNMEKKEKLMWIKKAAEDQKRYERELSEMRAPPAATNSSKKMKFQGEPKKPPMNGYQKFSQELLSNGELNHLPLKERMVEIGSRWQRISQSQKEHYKKLAEEQQKQYKVHLDLWVKSLSPQDRAAYKEYISNKRKSMTKLRGPNPKSSRTTLQSKSESEEDDEEDEDDEDEDEEEEDDENGDSSEDGGDSSESSSEDESEDGDENEEDDEDEDDDEDDDEDEDNESEGSSSSSSSSGDSSDSDSN
Z score of condensed fraction: -0.959

B4: XBP1 (protein, UniProt P17861 1-261, looked up)
X-box-binding protein 1: MVVVAAAPNPADGTPKVLLLSGQPASAAGAPAGQALPLMVPAQRGASPEAASGGLPQARKRQRLTHLSPEEKALRRKLKNRVAAQTARDRKKARMSELEQQVVDLEEENQKLLLENQLLREKTHGLVVENQELRQRLGMDALVAEEEAEAKGNEVRPVAGSAESAALRLRAPLQQVQAQLSPLQNISPWILAVLTLQIQSLISCWAFWTTWTQSCSSNALPQSLPAWRSSQRSTQKDPVPYQPPFLCQWGRHQPSWKPLMN
Z score of condensed fraction: -0.3977

B5: TWIST1 (protein, UniProt Q15672 1-202, looked up)
Twist-related protein 1: MMQDVSSSPVSPADDSLSNSEEEPDRQQPPSGKRGGRKRRSSRRSAGGGAGPGGAAGGGVGGGDEPGSPAQGKRGKKSAGCGGGGGAGGGGGSSSGGGSPQSYEELQTQRVMANVRERQRTQSLNEAFAALRKIIPTLPSDKLSKIQTLKLAARYIDFLYQVLQSDELDSKMASCSYVAHERLSYAFSVWRMEGAWSMSASH
Z score of condensed fraction: -0.8032

B6: TULP2 (protein, UniProt O00295 1-520, looked up)
Tubby-related protein 2: MSQDNDTLMRDILGHELAAMRLQKLEQQRRLFEKKQRQKRQELLMVQANPDASPWLWRSCLREERLLGDRGLGNPFLRKKVSEAHLPSGIHSALGTVSCGGDGRGERGLPTPRTEAVFRNLGLQSPFLSWLPDNSDAELEEVSVENGSVSPPPFKQSPRIRRKGWQAHQRPGTRAEGESDSQDMGDAHKSPNMGPNPGMDGDCVYENLAFQKEEDLEKKREASESTGTNSSAAHNEELSKALKGEGGTDSDHMRHEASLAIRSPCPGLEEDMEAYVLRPALPGTMMQCYLTRDKHGVDKGLFPLYYLYLETSDSLQRFLLAGRKRRRSKTSNYLISLDPTHLSRDGDNFVGKVRSNVFSTKFTIFDNGVNPDREHLTRNTARIRQELGAVCYEPNVLGYLGPRKMTVILPGTNSQNQRINVQPLNEQESLLSRYQRGDKQGLLLLHNKTPSWDKENGVYTLNFHGRVTRASVKNFQIVDPKHQEHLVLQFGRVGPDTFTMDFCFPFSPLQAFSICLSSFN
Z score of condensed fraction: -0.5004

B7: USP22 (protein, UniProt Q9UPT9 1-525, looked up)
Ubiquitin carboxyl-terminal …: MVSRPEPEGEAMDAELAVAPPGCSHLGSFKVDNWKQNLRAIYQCFVWSGTAEARKRKAKSCICHVCGVHLNRLHSCLYCVFFGCFTKKHIHEHAKAKRHNLAIDLMYGGIYCFLCQDYIYDKDMEIIAKEEQRKAWKMQGVGEKFSTWEPTKRELELLKHNPKRRKITSNCTIGLRGLINLGNTCFMNCIVQALTHTPLLRDFFLSDRHRCEMQSPSSCLVCEMSSLFQEFYSGHRSPHIPYKLLHLVWTHARHLAGYEQQDAHEFLIAALDVLHRHCKGDDNGKKANNPNHCNCIIDQIFTGGLQSDVTCQVCHGVSTTIDPFWDISLDLPGSSTPFWPLSPGSEGNVVNGESHVSGTTTLTDCLRRFTRPEHLGSSAKIKCSGCHSYQESTKQLTMKKLPIVACFHLKRFEHSAKLRRKITTYVSFPLELDMTPFMASSKESRMNGQYQQPTDSLNNDNKYSLFAVVNHQGTLESGHYTSFIRQHKDQWFKCDDAIITKASIKDVLDSEGYLLFYHKQFLEYE
Z score of condensed fraction: 0.5078

B8: ZBED2 (protein, UniProt Q9BTP6 1-218, looked up)
Zinc finger BED …: MMRREDEEEEGTMMKAKGDLEMKEEEEISETGELVGPFVSAMPTPMPHNKGTRFSEAWEYFHLAPARAGHHPNQYATCRLCGRQVSRGPGVNVGTTALWKHLKSMHREELEKSGHGQAGQRQDPRPHGPQLPTGIEGNWGRLLEQVGTMALWASQREKEVLRRERAVEWRERAVEKRERALEEVERAILEMKWKVRAEKEACQREKELPAAVHPFHFV
Z score of condensed fraction: 0.7838

B9: USP49 (protein, UniProt Q70CQ1 1-688, looked up)
Ubiquitin carboxyl-terminal …: MDRCKHVGRLRLAQDHSILNPQKWCCLECATTESVWACLKCSHVACGRYIEDHALKHFEETGHPLAMEVRDLYVFCYLCKDYVLNDNPEGDLKLLRSSLLAVRGQKQDTPVRRGRTLRSMASGEDVVLPQRAPQGQPQMLTALWYRRQRLLARTLRLWFEKSSRGQAKLEQRRQEEALERKKEEARRRRREVKRRLLEELASTPPRKSARLLLHTPRDAGPAASRPAALPTSRRVPAATLKLRRQPAMAPGVTGLRNLGNTCYMNSILQVLSHLQKFRECFLNLDPSKTEHLFPKATNGKTQLSGKPTNSSATELSLRNDRAEACEREGFCWNGRASISRSLELIQNKEPSSKHISLCRELHTLFRVMWSGKWALVSPFAMLHSVWSLIPAFRGYDQQDAQEFLCELLHKVQQELESEGTTRRILIPFSQRKLTKQVLKVVNTIFHGQLLSQVTCISCNYKSNTIEPFWDLSLEFPERYHCIEKGFVPLNQTECLLTEMLAKFTETEALEGRIYACDQCNSKRRKSNPKPLVLSEARKQLMIYRLPQVLRLHLKRFRWSGRNHREKIGVHVVFDQVLTMEPYCCRDMLSSLDKETFAYDLSAVVMHHGKGFGSGHYTAYCYNTEGGFWVHCNDSKLNVCSVEEVCKTQAYILFYTQRTVQGNARISETHLQAQVQSSNNDEGRPQTFS
Z score of condensed fraction: -0.174

B10: C1D (protein, UniProt Q13901 1-141, looked up)
Nuclear nucleic acid-binding …: MAGEEINEDYPVEIHEYLSAFENSIGAVDEMLKTMMSVSRNELLQKLDPLEQAKVDLVSAYTLNSMFWVYLATQGVNPKEHPVKQELERIRVYMNRVKEITDKKKAGKLDRGAASRFVKNALWEPKSKNASKVANKGKSKS
Z score of condensed fraction: -0.3287

B11: TWIST2 (protein, UniProt Q8WVJ9 1-160, looked up)
Twist-related protein 2: MEEGSSSPVSPVDSLGTSEEELERQPKRFGRKRRYSKKSSEDGSPTPGKRGKKGSPSAQSFEELQSQRILANVRERQRTQSLNEAFAALRKIIPTLPSDKLSKIQTLKLAARYIDFLYQVLQSDEMDNKMTSCSYVAHERLSYAFSVWRMEGAWSMSASH
Z score of condensed fraction: -0.4698

B12: WNT3A (protein, UniProt P56704 19-352, looked up)
Protein Wnt-3a: SYPIWWSLAVGPQYSSLGSQPILCASIPGLVPKQLRFCRNYVEIMPSVAEGIKIGIQECQHQFRGRRWNCTTVHDSLAIFGPVLDKATRESAFVHAIASAGVAFAVTRSCAEGTAAICGCSSRHQGSPGKGWKWGGCSEDIEFGGMVSREFADARENRPDARSAMNRHNNEAGRQAIASHMHLKCKCHGLSGSCEVKTCWWSQPDFRAIGDFLKDKYDSASEMVVEKHRESRGWVETLRPRYTYFKVPTERDLVYYEASPNFCEPNPETGSFGTRDRTCNVSSHGIDGCDLLCCGRGHNARAERRREKCRCVFHWCCYVSCQECTRVYDVHTCK
Z score of condensed fraction: -0.5314

B13: VAX2 (protein, UniProt Q9UIW0 1-290, looked up)
Ventral anterior homeobox 2: MGDGGAERDRGPARRAESGGGGGRCGDRSGAGDLRADGGGHSPTEVAGTSASSPAGSRESGADSDGQPGPGEADHCRRILVRDAKGTIREIVLPKGLDLDRPKRTRTSFTAEQLYRLEMEFQRCQYVVGRERTELARQLNLSETQVKVWFQNRRTKQKKDQSRDLEKRASSSASEAFATSNILRLLEQGRLLSVPRAPSLLALTPSLPGLPASHRGTSLGDPRNSSPRLNPLSSASASPPLPPPLPAVCFSSAPLLDLPAGYELGSSAFEPYSWLERKVGSASSCKKANT
Z score of condensed fraction: -0.9394

B14: VENTX (protein, UniProt O95231 1-258, looked up)
Homeobox protein VENTX: MRLSSSPPRGPQQLSSFGSVDWLSQSSCSGPTHTPRPADFSLGSLPGPGQTSGAREPPQAVSIKEAAGSSNLPAPERTMAGLSKEPNTLRAPRVRTAFTMEQVRTLEGVFQHHQYLSPLERKRLAREMQLSEVQIKTWFQNRRMKHKRQMQDPQLHSPFSGSLHAPPAFYSTSSGLANGLQLLCPWAPLSGPQALMLPPGSFWGLCQVAQEALASAGASCCGQPLASHPPTPGRPSLGPALSTGPRGLCAMPQTGDAF
Z score of condensed fraction: -0.4099
